Measurements: patent publication US20230272088A1 (SYNTHEKINE, published 2023)

T1: extracellular domain of hIFNGR2 (human, UniProt P38484 28-247, conjugated to Alexa647 (site not stated))
T1 construct: also called hIFNGR2-ECD; human IFNGR2 ECD
T1 sequence: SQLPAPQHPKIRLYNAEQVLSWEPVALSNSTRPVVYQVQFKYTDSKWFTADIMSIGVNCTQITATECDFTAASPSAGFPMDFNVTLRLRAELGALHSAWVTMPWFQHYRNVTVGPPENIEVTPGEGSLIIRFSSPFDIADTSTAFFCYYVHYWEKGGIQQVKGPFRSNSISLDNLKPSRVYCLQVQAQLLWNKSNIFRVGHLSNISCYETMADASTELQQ


Target: T1, extracellular domain of hIFNGR2
Assay: flow cytometry, yeast-displayed VHH, 100 nM Alexa647-conjugated antigen
Description: Binding of individual VHH to human and murine antigen was tested by flow cytometry. Briefly, 2E5 yeast cells expressing a single sdAb clone were added to each well of a 96 well plate. The first plate was incubated with 100 nM of human antigen conjugated to Alexa647 whereas the second plate was incubated with 100 nM of murine antigen conjugated to Alexa647. Yeast cells were washed 3 times with PBS containing 1% bovine serum albumin. Yeast cells were analyzed using flow cytometry and clones showing a mean fluorescence intensity of greater than 1000 were considered as binding molecules. Specificity of sdAbs was confirmed by incubating yeast cells with a irrelevant protein conjugated to Alexa647. Positive clones were sequenced, and sequences analyzed to identify unique clonotypes.

binding result	Binder
binds	DR947 (VHH, also called anti-IFNGR2 sdAb VHH DR947) VHH: QVQLVESGGGLVQAGGSLRLSCAASGGSFGRYTMGWYRQAPGKEREFVAVISWSGTNTYYADSVKGRFTISRDNAKNTMYLQMNDLKPEDTAVYYCAARETYYSHWDERMEYDYWGQGTQVTVSS
binds	DR929 (VHH, also called anti-IFNGR2 sdAb VHH DR929) VHH: QVQLVESGGGLVQAGGSLRLSCVASGRTFSSYAMGWFRQTPGKEREFVSAISRGGGSTDYADSVKGRFTISRDNAKNTVYLQMNNLKSEDTAVYYCALRAYSGRYYQFLEYDYWGQGTQVTVSS
binds	DR943 (VHH, also called anti-IFNGR2 sdAb VHH DR943) VHH: QVQLVESGGGLVQAGGSLRLSCVASGRTVGYGMAWFRQAPGKQRDVVAAITWSGTSTYYPDSVKGRFTISRDNAKNTMYLQMSSLKPEDTAVYYCAAGSRRRVGVDVGGYDYWGQGTQVTVSS
binds	DR939 (VHH, also called anti-IFNGR2 sdAb VHH DR939) VHH: EVQLVESGGGLVQAGGSMRLSCANSGRTFGTYAMGWFRQSPGKERERVASIDRDGSMSYYADSVKGRFTISGDNAKNTVYLQMNSLKPEDTAVYYCAASRRAVISLQTVDYWGQGTQVTVSS
binds	DR932 (VHH, also called anti-IFNGR2 sdAb VHH DR932) VHH: QVQLVESGGGLVQAGGFLRLSCAASGRTFSYTTIGWFRQAPGKEREFVAVISAGGGSRDYADALKGRFTISRDNAKKMVYLQMNNLKPEDTAVYYCAVRRNTDTYTTTGDYDYWGQGTQVTVSS
binds	DR934 (VHH, also called anti-IFNGR2 sdAb VHH DR934) VHH: QVQLVESGGGLVQAGGSLRLSCAASGRSFANYAMGWFRQAPGKERETVAAISRGGGSTWYADSVKGRFTISKDNAKNTVYLQMNSLKPEDTAIYYCAARSYSGSYTYSFGEYDYWGQGTQVTVSS
binds	DR940 (VHH, also called anti-IFNGR2 sdAb VHH DR940) VHH: EVQLVESGGRLVQTGGSLRLSCAASGRTFSNYAMGWFRQAPGKEREFVAAISWYSGNTYYADSVKGRFTISRDNAKNTMYLQMNSLKPEDTAVYYCAANQIATMISVGDYWGQGTLVTVSS
binds	DR928 (VHH, also called anti-IFNGR2 sdAb VHH DR928) VHH: QVQLVESGGGLVQAGGSLRLSCAASGRTFSNYRMGWFRQAPGKEREFVAAISRGGGTTLYADSVKGRFTISRDNAKNTVDLQMNRLKPEDTAVYFCAAGDFSTTWDEYNYWGQGTQVTVSS
binds	DR946 (VHH, also called anti-IFNGR2 sdAb VHH DR946) VHH: QVQLVESGGGLVQPGESLRLSCAASGPFTRYAMGWFRQAPGKEREFVAAISWSSGNTYYVDSVKGRFTISRDNAKNTMYLQMNSLKPEDTAVYYCAANEVATMSGPDDYWGQGTQVTVSS
binds	DR935 (VHH, also called anti-IFNGR2 sdAb VHH DR935) VHH: QVQLVESGGGLVQAGGSLRLSCAASGRAFSTYALGWFRQAPGKEREFIAAISRGGGSTDYADSVKGRFTISRDNAKSTVYLQMNSLKPEDTAVYYCAARSYSSSYYYSQYEYDYWGQGTQVTVSS
binds	DR927 (VHH, also called anti-IFNGR2 sdAb VHH DR927) VHH: QVQLVESGGGLVQAGGSLRLSCAASGRTFTSYAMNWFRQAPGKEREFVAAISWSSGNTYVADSVKGRFAISRDKAKNTMYLQMNSLAPEDTAVYYCAATTIATMSDEYTYWGQGTQVTVSS
binds	DR948 (VHH, also called anti-IFNGR2 sdAb VHH DR948) VHH: QVQLVESGGGLVQAGDSLRLSCVASGSIDSSYYVSWFRQAPGKERDLVAAINWGDSRTAYADSVKGRFTISRDNAKNTVYLQMHSLRPNDTAVYYCASRIGLGGPVVAAPTRYPYWGQGTLVTVSS
binds	DR931 (VHH, also called anti-IFNGR2 sdAb VHH DR931) VHH: QVQLVESGGGLVQAGGSLLLSCAASGRTFSTYAMGWFRQAPGKERMFVAAISVNGGSTYYADSVTGRFTISRDNAKNTMYLQMNNLKPGDTAVYYCAARRPYPGSDFLTWASYDYRGQGTLVTVSS
binds	DR936 (VHH, also called anti-IFNGR2 sdAb VHH DR936) VHH: EVQLVESGGGLVQAGGSLRLSCAASGRTFSSVAMAWFRQAPGKEREFVSAISSGGGSTDYADSVKGRFTISKDNAKNTMYLQMDSLKPEDTAVYYCAARDYSSRRYYQSRYEYDLWGLGTQVTVSS
binds	DR949 (VHH, also called anti-IFNGR2 sdAb VHH DR949) VHH: QVQLVESGGGLVQAGGSLRLSCAASESILRFNVMSWLRQAPGKQRELVAVITSGGSTNYADSVKGRFTISRDNAKNTVYLQMNSLKPEDTAVYYCAADESGQYYWGQGTQVTVSS
binds	DR937 (VHH, also called anti-IFNGR2 sdAb VHH DR937) VHH: QVQLVESGGGLVQPGGSLRLSCAASGRTFRSYSMGWFRQAPGKEREFVAAISWYSGTTYYADPVKGRFTISRDDAKNTLYLQMNSLKPEDTAVYYCAANEIATMESSNDYWGQGTQVTVSS
binds	DR941 (VHH, also called anti-IFNGR2 sdAb VHH DR941) VHH: QVQLVESGGGLVEAGGSLRLACAASGSIFRLNLMGWYRQAPGKQRELVAHVGTTGNTAYADSVKGRFTISKDDAKNMVFLQMNSLKPEDTAVYYCYADRWGQFSWGQGTQVTVSS
binds	DR930 (VHH, also called anti-IFNGR2 sdAb VHH DR930) VHH: EVQLVESGGGLVQAGGSLRLSCTVSGRTFSSYAVAWFRQAPGNVRELAAALSRGGGSAYYTDSVKGRFTISRDNAKNTVYLQMNSLKPEDTAVYYCAARNYDGTYYQENQYNYWGQGTQVTVSS
binds	DR938 (VHH, also called anti-IFNGR2 sdAb VHH DR938) VHH: QVQLVESGGGLVQPGGSLRLSCTASGRPRTTYAMGWFRQAPGKEREIVAAISKAGGSTYVADSAKGRFAISKDNAKNTVYLQMNSLKPEDTAVYYCAARAGFAAQIFEYDYWGQGTLVTVSS
binds	DR952 (VHH, also called anti-IFNGR2 sdAb VHH DR952) VHH: QVQLVESGGGLVQAGGFLRLSCAASGRTFSSLAMAWFRQAPGKEREFVAAISRSGGSTDYADSVKGRFTISRDNAKSTLYLQMSSLKPEDTAVYYCAARDYSTLQYYNEYEYSDWGQGTLVTVSS
binds	DR951 (VHH, also called anti-IFNGR2 sdAb VHH DR951) VHH: QVQLVESGGGLVQAGGSLRLSCAASGRTFGTSFGSLSMGWFRQAPGKEREFVAAISRNIGRTYYADSVKDRFTISRDNAKNTASLQMNSLEPEDTAVYNCAATNSYDDLRRSYAYDYWGQGTQVTVSS
binds	DR933 (VHH, also called anti-IFNGR2 sdAb VHH DR933) VHH: QVQLVESGGGLVQPGDSLRLSCVASGGTISSLAMGWFRQAPGKEREFVAAISWSGRSTYYVDSVKGRFTISTDNAKNTVYLQMNSLKPEDTAVYYCVAGEDGHSEYDYWGQGTQVTVSS
binds	DR950 (VHH, also called anti-IFNGR2 sdAb VHH DR950) VHH: QVQLVESGGGLVQAGGSLRLSCAASGLTTSSAALAWFRQAPGKERELDPTITSGGGSTYYADSVKGRFTISKDNAKNTLYLQMSSLKPEDTAVYYCAARFYSTTYYYREHEYSDWGQGTQVTVSS
